{"source": "paper PMC3115801", "about": "(The Journal of Cell Biology, 2011)", "target": "T1, bacterially purified Epac1 (amino acids 149–882) (human, UniProt O95398-3 149-881)", "T1 sequence (looked up)": "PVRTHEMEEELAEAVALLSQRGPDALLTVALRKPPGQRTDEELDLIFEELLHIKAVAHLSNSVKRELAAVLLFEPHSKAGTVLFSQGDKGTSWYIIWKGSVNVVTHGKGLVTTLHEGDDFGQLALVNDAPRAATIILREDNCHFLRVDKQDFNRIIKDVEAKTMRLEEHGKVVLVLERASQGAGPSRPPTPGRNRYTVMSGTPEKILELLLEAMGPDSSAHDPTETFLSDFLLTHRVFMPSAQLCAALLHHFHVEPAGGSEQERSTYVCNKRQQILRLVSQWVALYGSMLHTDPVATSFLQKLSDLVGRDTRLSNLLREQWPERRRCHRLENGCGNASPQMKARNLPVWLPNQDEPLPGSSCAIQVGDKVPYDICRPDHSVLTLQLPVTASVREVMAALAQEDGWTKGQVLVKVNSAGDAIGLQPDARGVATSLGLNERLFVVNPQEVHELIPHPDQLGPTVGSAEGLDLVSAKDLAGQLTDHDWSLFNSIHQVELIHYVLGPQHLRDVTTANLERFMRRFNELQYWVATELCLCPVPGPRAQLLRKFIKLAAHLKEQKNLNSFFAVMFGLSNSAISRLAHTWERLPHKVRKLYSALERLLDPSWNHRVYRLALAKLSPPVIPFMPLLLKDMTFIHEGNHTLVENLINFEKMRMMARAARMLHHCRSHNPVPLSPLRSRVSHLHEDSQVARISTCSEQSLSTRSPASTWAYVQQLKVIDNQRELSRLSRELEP", "assay": "pull-down", "data": [{"binder": "GST-tagged bacterially purified ZNF domain of RanBP2 (domain or fragment, UniProt P49792 1341-1819, looked up) NLNFEFQVAKKEGSWWHCNSCSLKNASTAKKCVSCQNLNPSNKELVGPPLAETVFTPKTSPENVQDRFALVTPKKEGHWDCSICLVRNEPTVSRCIACQNTKSANKSGSSFVHQASFKFGQGDLPKPINSDFRSVFSTKEGQWDCSACLVQNEGSSTKCAACQNPRKQSLPATSIPTPASFKFGTSETSKTLKSGFEDMFAKKEGQWDCSSCLVRNEANATRCVACQNPDKPSPSTSVPAPASFKFGTSETSKAPKSGFEGMFTKKEGQWDCSVCLVRNEASATKCIACQNPGKQNQTTSAVSTPASSETSKAPKSGFEGMFTKKEGQWDCSVCLVRNEASATKCIACQNPGKQNQTTSAVSTPASSETSKAPKSGFEGMFTKKEGQWDCSVCLVRNEASATKCIACQCPSKQNQTTAISTPASSEISKAPKSGFEGMFIRKGQWDCSVCCVQNESSSLKCVACDASKPTHKPIAEAPS", "values": [{"measurement": "binding result", "value": "binds"}]}]}
